Biological target: α-Hemoglobin (αHb) (UniProt P69905)
Test: cell-based or functional assay

UniProt P69905, sequence (P69905 2-142): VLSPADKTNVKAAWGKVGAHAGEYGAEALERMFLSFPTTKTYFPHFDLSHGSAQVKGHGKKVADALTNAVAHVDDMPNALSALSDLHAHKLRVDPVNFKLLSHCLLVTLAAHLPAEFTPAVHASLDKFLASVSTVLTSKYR

For “α-hemoglobin stabilizing protein (AHSP) (from UniProt Q9NZD4 1-102)”, the Acceleration of rate of αHb oxidation by AHSP (ratio of oxidation rate constants) was 6.2.

Reference: patent publication US20060263855A1
